In article doi:10.1101/2022.04.11.487882:

Target: receptor-binding domain (RBD) of the SARS-CoV-2 spike (S) protein S1 region, His-tagged (SARS-CoV-2) (UniProt P0DTC2)
Assay: SPR

recombinant human integrin αvβ3 (from UniProt P06756 31-1048; P05106 27-718) (complex)
Kd: > 500 nM

recombinant human integrin αvβ6 (from UniProt P06756 31-1048; P18564 22-709) (complex)
Kd: 230 nM | koff: 0.0236 s⁻¹ | kon: 84000 M⁻¹ s⁻¹
